The target of assay [1] is F-actin (rabbit skeletal muscle actin, polymerized) (rabbit) (UniProt P68135).
Assay [2] concerns the target F-actin (Oryctolagus cuniculus) (UniProt P68135). Conditions: cited from earlier work.
Assay [3] has as its target α-actinin-2 (Homo sapiens) (UniProt P35609). Conditions: cited from earlier work.

Sequence of Titin Zr-7 (Q8WZ42 692-740): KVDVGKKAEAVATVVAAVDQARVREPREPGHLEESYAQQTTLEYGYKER
Sequence of α-actinin-2 (Homo sapiens) (P35609 whole entry): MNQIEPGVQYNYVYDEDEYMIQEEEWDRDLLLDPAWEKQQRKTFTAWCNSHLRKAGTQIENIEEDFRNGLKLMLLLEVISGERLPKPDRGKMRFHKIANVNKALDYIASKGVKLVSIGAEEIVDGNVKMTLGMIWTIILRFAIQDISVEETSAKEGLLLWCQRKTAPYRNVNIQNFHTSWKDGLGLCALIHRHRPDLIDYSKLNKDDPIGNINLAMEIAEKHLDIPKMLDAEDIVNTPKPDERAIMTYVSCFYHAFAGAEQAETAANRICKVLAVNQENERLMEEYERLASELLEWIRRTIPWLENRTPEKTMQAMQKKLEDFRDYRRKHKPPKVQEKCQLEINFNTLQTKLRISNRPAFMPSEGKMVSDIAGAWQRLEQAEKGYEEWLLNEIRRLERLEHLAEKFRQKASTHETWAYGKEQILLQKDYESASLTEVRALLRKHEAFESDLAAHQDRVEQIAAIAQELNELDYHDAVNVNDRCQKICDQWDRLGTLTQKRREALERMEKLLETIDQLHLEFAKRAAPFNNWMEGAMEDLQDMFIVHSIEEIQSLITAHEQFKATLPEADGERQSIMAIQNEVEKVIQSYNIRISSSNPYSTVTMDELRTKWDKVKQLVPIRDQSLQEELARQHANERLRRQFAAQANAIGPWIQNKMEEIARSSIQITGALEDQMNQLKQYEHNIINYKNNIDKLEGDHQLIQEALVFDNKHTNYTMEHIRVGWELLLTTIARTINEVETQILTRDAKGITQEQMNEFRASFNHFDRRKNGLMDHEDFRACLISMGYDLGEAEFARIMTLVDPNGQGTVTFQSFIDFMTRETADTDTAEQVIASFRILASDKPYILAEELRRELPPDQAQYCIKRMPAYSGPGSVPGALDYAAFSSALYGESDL

In assay [1], “N-terminal EGFP fusion of myotilin K354/358/359A (from UniProt Q9UBF9 1-498) (natural protein)” came in with an FRAP in Z-discs of C2C12 myotubes, median half-time of fluorescence recovery of 32.3 s. Still for that read-out and setting: the figure for “N-terminal EGFP fusion of myotilin K354/359A (from UniProt Q9UBF9 1-498) (natural protein)” is 35.5 s; for “N-terminal EGFP fusion of myotilin K354A (from UniProt Q9UBF9 1-498) (natural protein)” it is 48.2 s. On the same count and under the same terms, the figure for “N-terminal EGFP fusion of myotilin K359A (from UniProt Q9UBF9 1-498) (natural protein)” is 64.1 s; for “N-terminal EGFP fusion of myotilin, wild type (from UniProt Q9UBF9 1-498) (natural protein)” it is 72.4 s.

For the substance Palladin (from UniProt Q8WX93), the Kd – broadly, the equilibrium constant for the complex coming apart – in assay [2] is 2100 nM. Take Titin Zr-7 (from UniProt Q8WZ42): the Kd in assay [3] is 480 nM.

The record behind these values is publication PMC8062120.
